Test results: PMC11429718

How the values were obtained:
[1] = target: 329 SOSIP.v8.2 Env trimer (HIV-1 clade C (isolate 329.14.B1)); assay: negative-stain electron microscopy
[2] = target: 329 SOSIP.v8.2 Env trimer (HIV-1 clade C (isolate 329.14.B1)); assay: native gel or EMSA

329 SOSIP.v8.2 Env trimer (complex)
stoichiometry N [1]: 3
stoichiometry N [2]: 3
